Assay results published in patent US20230158141A1 (YAFEI SHANGHAI BIOLOG MEDICINE SCIENCE AND TECHNOLOGY, published 2023).

T1: IL-10R1-Fc (UniProt Q13651 22-235, limits assumed)
T1 sequence (looked up): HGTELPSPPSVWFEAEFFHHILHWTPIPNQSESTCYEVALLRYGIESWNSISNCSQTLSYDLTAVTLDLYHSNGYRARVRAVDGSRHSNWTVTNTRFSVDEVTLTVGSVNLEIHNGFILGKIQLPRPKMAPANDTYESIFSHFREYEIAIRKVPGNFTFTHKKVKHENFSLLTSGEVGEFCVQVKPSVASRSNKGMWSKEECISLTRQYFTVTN


Each binder was assayed against T1, IL-10R1-Fc (assay: ELISA, IL-10R1-Fc coated).

| Binder | Binding recovery (>60%) | Decreased fold of binding to ligand after Conjugating with S48 |
| --- | --- | --- |
| IL-10 Thr6Cys-R4-7 (ligand, human, UniProt P22301 19-178, looked up, R4-7 on Cys 6, mature) SPGQGCQSENSCTHFPGNLPNMLRDLRDAFSRVKTFFQMKDQLDNLLLKESLLEDFKGYLGCQALSEMIQFYLEEVMPQAENQDPDIKAHVNSLGENLKTLRLRLRRCHRFLPCENKSKAVEQVKNAFNKLQEKGIYKAMSEFDIFINYIEAYMTMKIRN | 101% |  |
| IL-10 Arg27Cys-S48 (ligand, human, UniProt P22301 19-178, looked up, S48 on Cys 27, mature) SPGQGTQSENSCTHFPGNLPNMLRDLCDAFSRVKTFFQMKDQLDNLLLKESLLEDFKGYLGCQALSEMIQFYLEEVMPQAENQDPDIKAHVNSLGENLKTLRLRLRRCHRFLPCENKSKAVEQVKNAFNKLQEKGIYKAMSEFDIFINYIEAYMTMKIRN |  | 12 fold |
| IL-10 Asn148Cys-S48 (ligand, human, UniProt P22301 19-178, looked up, S48 on Cys 148, mature) SPGQGTQSENSCTHFPGNLPNMLRDLRDAFSRVKTFFQMKDQLDNLLLKESLLEDFKGYLGCQALSEMIQFYLEEVMPQAENQDPDIKAHVNSLGENLKTLRLRLRRCHRFLPCENKSKAVEQVKNAFNKLQEKGIYKAMSEFDIFICYIEAYMTMKIRN |  | 10 fold |
| IL-10 Arg27Cys-R4-20 (ligand, human, UniProt P22301 19-178, looked up, R4-20 on Cys 27, mature) SPGQGTQSENSCTHFPGNLPNMLRDLCDAFSRVKTFFQMKDQLDNLLLKESLLEDFKGYLGCQALSEMIQFYLEEVMPQAENQDPDIKAHVNSLGENLKTLRLRLRRCHRFLPCENKSKAVEQVKNAFNKLQEKGIYKAMSEFDIFINYIEAYMTMKIRN | 86.6% |  |
| IL-10 Arg159Cys-R4-20 (ligand, human, UniProt P22301 19-178, looked up, R4-20 on Cys 159, mature) SPGQGTQSENSCTHFPGNLPNMLRDLRDAFSRVKTFFQMKDQLDNLLLKESLLEDFKGYLGCQALSEMIQFYLEEVMPQAENQDPDIKAHVNSLGENLKTLRLRLRRCHRFLPCENKSKAVEQVKNAFNKLQEKGIYKAMSEFDIFINYIEAYMTMKICN | 99% |  |
| IL-10 Asp28Cys-S48 (ligand, human, UniProt P22301 19-178, looked up, S48 on Cys 28, mature) SPGQGTQSENSCTHFPGNLPNMLRDLRCAFSRVKTFFQMKDQLDNLLLKESLLEDFKGYLGCQALSEMIQFYLEEVMPQAENQDPDIKAHVNSLGENLKTLRLRLRRCHRFLPCENKSKAVEQVKNAFNKLQEKGIYKAMSEFDIFINYIEAYMTMKIRN |  | 30 fold |
| IL-10 Asp28Cys-R4-11 (ligand, human, UniProt P22301 19-178, looked up, R4-11 on Cys 28, mature) SPGQGTQSENSCTHFPGNLPNMLRDLRCAFSRVKTFFQMKDQLDNLLLKESLLEDFKGYLGCQALSEMIQFYLEEVMPQAENQDPDIKAHVNSLGENLKTLRLRLRRCHRFLPCENKSKAVEQVKNAFNKLQEKGIYKAMSEFDIFINYIEAYMTMKIRN | 92.3% |  |
| IL-10 Asn45Cys-S48 (ligand, human, UniProt P22301 19-178, looked up, S48 on Cys 45, mature) SPGQGTQSENSCTHFPGNLPNMLRDLRDAFSRVKTFFQMKDQLDCLLLKESLLEDFKGYLGCQALSEMIQFYLEEVMPQAENQDPDIKAHVNSLGENLKTLRLRLRRCHRFLPCENKSKAVEQVKNAFNKLQEKGIYKAMSEFDIFINYIEAYMTMKIRN |  | 7 fold |
| IL-10 Asn45Cys-R4-18 (ligand, human, UniProt P22301 19-178, looked up, R4-18 on Cys 45, mature) SPGQGTQSENSCTHFPGNLPNMLRDLRDAFSRVKTFFQMKDQLDCLLLKESLLEDFKGYLGCQALSEMIQFYLEEVMPQAENQDPDIKAHVNSLGENLKTLRLRLRRCHRFLPCENKSKAVEQVKNAFNKLQEKGIYKAMSEFDIFINYIEAYMTMKIRN | 97.7% |  |
| IL-10 Arg159Cys-S48 (ligand, human, UniProt P22301 19-178, looked up, S48 on Cys 159, mature) SPGQGTQSENSCTHFPGNLPNMLRDLRDAFSRVKTFFQMKDQLDNLLLKESLLEDFKGYLGCQALSEMIQFYLEEVMPQAENQDPDIKAHVNSLGENLKTLRLRLRRCHRFLPCENKSKAVEQVKNAFNKLQEKGIYKAMSEFDIFINYIEAYMTMKICN |  | 3 fold |
| IL-10 Asn148Cys-R4-18 (ligand, human, UniProt P22301 19-178, looked up, R4-18 (printed R418) on Cys 148, mature) SPGQGTQSENSCTHFPGNLPNMLRDLRDAFSRVKTFFQMKDQLDNLLLKESLLEDFKGYLGCQALSEMIQFYLEEVMPQAENQDPDIKAHVNSLGENLKTLRLRLRRCHRFLPCENKSKAVEQVKNAFNKLQEKGIYKAMSEFDIFICYIEAYMTMKIRN | 84.3% |  |
| IL-10 Asp25Cys-R4-12 (ligand, human, UniProt P22301 19-178, looked up, R4-12 on Cys 25, mature) SPGQGTQSENSCTHFPGNLPNMLRCLRDAFSRVKTFFQMKDQLDNLLLKESLLEDFKGYLGCQALSEMIQFYLEEVMPQAENQDPDIKAHVNSLGENLKTLRLRLRRCHRFLPCENKSKAVEQVKNAFNKLQEKGIYKAMSEFDIFINYIEAYMTMKIRN | 97.1% |  |

Results, then the binder that gave them:

| Binding recovery (>60%) | Decreased fold of binding to ligand after Conjugating with S48 | Binder |
| --- | --- | --- |
|  | 13 fold | IL-10 Asp41Cys-S48 (ligand, human, UniProt P22301 19-178, looked up, S48 on Cys 41, mature) SPGQGTQSENSCTHFPGNLPNMLRDLRDAFSRVKTFFQMKCQLDNLLLKESLLEDFKGYLGCQALSEMIQFYLEEVMPQAENQDPDIKAHVNSLGENLKTLRLRLRRCHRFLPCENKSKAVEQVKNAFNKLQEKGIYKAMSEFDIFINYIEAYMTMKIRN |
| 90.5% |  | IL-10 Asp144Cys-R4-11 (ligand, human, UniProt P22301 19-178, looked up, R4-11 on Cys 144, mature) SPGQGTQSENSCTHFPGNLPNMLRDLRDAFSRVKTFFQMKDQLDNLLLKESLLEDFKGYLGCQALSEMIQFYLEEVMPQAENQDPDIKAHVNSLGENLKTLRLRLRRCHRFLPCENKSKAVEQVKNAFNKLQEKGIYKAMSEFCIFINYIEAYMTMKIRN |
|  | 52 fold | IL-10 Gln38Cys-S48 (ligand, human, UniProt P22301 19-178, looked up, S48 on Cys 38, mature) SPGQGTQSENSCTHFPGNLPNMLRDLRDAFSRVKTFFCMKDQLDNLLLKESLLEDFKGYLGCQALSEMIQFYLEEVMPQAENQDPDIKAHVNSLGENLKTLRLRLRRCHRFLPCENKSKAVEQVKNAFNKLQEKGIYKAMSEFDIFINYIEAYMTMKIRN |
|  | 43 fold | IL-10 Asp44Cys-S48 (ligand, human, UniProt P22301 19-178, looked up, S48 on Cys 44, mature) SPGQGTQSENSCTHFPGNLPNMLRDLRDAFSRVKTFFQMKDQLCNLLLKESLLEDFKGYLGCQALSEMIQFYLEEVMPQAENQDPDIKAHVNSLGENLKTLRLRLRRCHRFLPCENKSKAVEQVKNAFNKLQEKGIYKAMSEFDIFINYIEAYMTMKIRN |
| 87% |  | IL-10 Gln38Cys-R4-19 (ligand, human, UniProt P22301 19-178, looked up, R4-19 on Cys 38, mature) SPGQGTQSENSCTHFPGNLPNMLRDLRDAFSRVKTFFCMKDQLDNLLLKESLLEDFKGYLGCQALSEMIQFYLEEVMPQAENQDPDIKAHVNSLGENLKTLRLRLRRCHRFLPCENKSKAVEQVKNAFNKLQEKGIYKAMSEFDIFINYIEAYMTMKIRN |
|  | 15 fold | IL-10 Asp144Cys-S48 (ligand, human, UniProt P22301 19-178, looked up, S48 on Cys 144, mature) SPGQGTQSENSCTHFPGNLPNMLRDLRDAFSRVKTFFQMKDQLDNLLLKESLLEDFKGYLGCQALSEMIQFYLEEVMPQAENQDPDIKAHVNSLGENLKTLRLRLRRCHRFLPCENKSKAVEQVKNAFNKLQEKGIYKAMSEFCIFINYIEAYMTMKIRN |
| 92.1% |  | IL-10 Asp44Cys-R4-11 (ligand, human, UniProt P22301 19-178, looked up, R4-11 on Cys 44, mature) SPGQGTQSENSCTHFPGNLPNMLRDLRDAFSRVKTFFQMKDQLCNLLLKESLLEDFKGYLGCQALSEMIQFYLEEVMPQAENQDPDIKAHVNSLGENLKTLRLRLRRCHRFLPCENKSKAVEQVKNAFNKLQEKGIYKAMSEFDIFINYIEAYMTMKIRN |
| 95.2% |  | IL-10 Asp41Cys-R4-11 (ligand, human, UniProt P22301 19-178, looked up, R4-11 on Cys 41, mature) SPGQGTQSENSCTHFPGNLPNMLRDLRDAFSRVKTFFQMKCQLDNLLLKESLLEDFKGYLGCQALSEMIQFYLEEVMPQAENQDPDIKAHVNSLGENLKTLRLRLRRCHRFLPCENKSKAVEQVKNAFNKLQEKGIYKAMSEFDIFINYIEAYMTMKIRN |
